This note sets out measurements from the nanobody polyreactivity screen of Harvey et al. (2022).

The nature of this data set: yeast display, Sf9 membrane polyspecificity reagent, FACS + sequencing; frameworks hold sequencing errors. Summed up:
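After 36–48 hours of galactose induction, yeast (Saccharomyces cerevisiae BJ5465) displaying a synthetic nanobody library were stained at 4 °C for 1 hour with 10% biotinylated, detergent-solubilized Sf9 membrane reagent. Streptavidin microbeads enriched the stained cells before FACS sorting into low and high (top ~1%) gates on anti-HA and streptavidin fluorescence. Each clone's polyreactivity label reflects its gate of origin.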
Regarding “QVQLVESGGGLVQAGGSLRLSCAASGRTFYGYAMGWYRQAPGKERELVASIDGGGRTYYADSVKGRFTISRDNAKNTVYLQMNSLKPEYNGVYYCAKRSYQYGYPDGYGYWGQGTQVTVSS”, the “polyreactivity (PSR sort gate)” value is recorded as “low polyreactivity”.

As for “QVQLVESGGGLVQAGGSLRLSCAASGRTFYGYAMGWYRQAPGKERELVATISWSGGRTNYADSVKGRFTISRDNAKNTVYLQMNSLKPEDTAVYYCAAPYRLSKYDYWGQGTEVTVSS”, the “polyreactivity (PSR sort gate)” value is “high polyreactivity”.

Turning to “QVQLVESGGGLVQAGGSLRLSCAASGRTFYGYAMGWYRQAPGKERELVATITSGGSTKYADSVKGRFTISRDNAKNTVYLQMNSLKPEDTAVYYCAARTGGHRGYDYWGQGTQVTVSS”, the “polyreactivity (PSR sort gate)” value is “low polyreactivity”.

On to “QVQLVESGGGLVQAGGSLRLSCAASGRTFYGYGMGWYRQAPGKERELVAGISGRGTRTYYADSVKGRFTISRDNAKNTVYLQMNSLKPEDTAVYYCNAVSIGYYSQSLGLDYWGQGTQVTVSS”, for which the “polyreactivity (PSR sort gate)” value is given as “high polyreactivity”.

As for “QVQLVESGGGLVQAGGSLRLSCAASGRTFYGYVMGWYRQAPGKERELVAAISRSVGSTYYADSVKGRFTISRDNAKNTVYLQMNSLKPEDTAVYYCATSVYGGVDYWGQGTQVTVSS”, the “polyreactivity (PSR sort gate)” value is given as “high polyreactivity”.

Consider “QVQLVESGGGLVQAGGSLRLSCAASGRTFYGYVMGWYRQAPGKERELVAAISSGGNTKYADSVKGRFTISRDNAKNTVYLQMNSLKPEDTAVYYCAAGSSVTPYRYYYWGQGTQVTVSS”, for which the “polyreactivity (PSR sort gate)” value was “high polyreactivity”.

On to “QVQLVESGGGLVQAGGSLRLSCAASGRTFYHNAMGWYRQAPGKERELVAAITSSGGRTYYADSVKGRFTISRDNAKNTVYLQMNSLKPEDTAVYYCNARYLGGQVRYWYYNKYDYWGQGTQVTVSS”, for which the “polyreactivity (PSR sort gate)” value is reported as “high polyreactivity”.

Take “QVQLVESGGGLVQAGGSLRLSCAASGRTFYHYAMGWYRQAPGKERELVAGITGRGRSTYYADSVKGRFTISRDNAKNTVYLQMNSLKPEDTAVYYCAAARLYSGAASDYGYWGQGTQVTVSS”: the “polyreactivity (PSR sort gate)” value is “high polyreactivity”.

For the sequence “QVQLVESGGGLVQAGGSLRLSCAASGRTFYHYTMGWYRQAPGKARELVAAITSGGSTYYADSVKGRFTISRDYAKNTVYLQMNSLKPEDTAVYYCARVRPLYHFSRYDDCGQGTQVTVSS”, the “polyreactivity (PSR sort gate)” value is given as “high polyreactivity”.

As for “QVQLVESGGGLVQAGGSLRLSCAASGRTFYINAMGWSRQAPGKERELVAAITWSGGRTYYADSVKGRFTISRDNAKNTVYLQMNSLKPEDTAVYYCAVGYVYTRKGRVQPVKYDYWGQGTQVTVSS”, the “polyreactivity (PSR sort gate)” value is “high polyreactivity”.

In the case of “QVQLVESGGGLVQAGGSLRLSCAASGRTFYINAMGWYRQAPGKERELVATISRSGGDTYYADSVKGRFTISRDNAKNTVYLQMNSLKPEDTAVYYCYARQYYYRSGAYASRYLYNYWGQGTQVTVSS”, the “polyreactivity (PSR sort gate)” value is reported as “high polyreactivity”.

Take “QVQLVESGGGLVQAGGSLRLSCAASGRTFYINAMGWYRQAPRKERELVAAITSVGSTNYADSVKGRFTISRDNAKNNVYIQMNSLKPEDTAVYYCAAESTEGTSGDYDYWGQGTQVTVSS”: the “polyreactivity (PSR sort gate)” value was “low polyreactivity”.

With “QVQLVESGGGLVQAGGSLRLSCAASGRTFYIYAMGWYRQAPGKERELVAAINSGGSTYYADSVKGRFTISRDNAKNTVYLQMNSLKPEDTAVYYCAATKGYYFFGDRDYWGQGTQVTVSS”, the “polyreactivity (PSR sort gate)” value is “low polyreactivity”.

In the case of “QVQLVESGGGLVQAGGSLRLSCAASGRTFYIYAMGWYRQAPGKERELVAAISWGSGSTYYADSVKGRFTISRDNAKNTVYLQMNSLKPEDTAVYYCAAEYAYPSEWTYDYWRQGTQVTVSS”, the “polyreactivity (PSR sort gate)” value is listed as “low polyreactivity”.

With “QVQLVESGGGLVQAGGSLRLSCAASGRTFYIYAMGWYRQAPGKERELVAAITYGGGRTFYADSVKGRFTISRDYAKTTVYLQMISLKPEDTAVYYCAATDRGKRSTYDYWGQGTQVTVSS”, the “polyreactivity (PSR sort gate)” value was “high polyreactivity”.

Regarding “QVQLVESGGGLVQAGGSLRLSCAASGRTFYIYAMGWYRQAPGKERELVASINWSTGRTYYADSVKGRFTISRDNAKNTVYLQMNSLKPEDTAVYYCATDGDYYYISQGRRGYRYNYWGQGTQVTVSS”, the “polyreactivity (PSR sort gate)” value is “high polyreactivity”.

For the sequence “QVQLVESGGGLVQAGGSLRLSCAASGRTFYIYARGWYRKAPGKERELVAAITYGGGRTFYADSVKGRFTISRDNAKYTVYLQMNSLKPEDNAVYYCAATVRGKRSTYDYWGQGTQVTVSS”, the “polyreactivity (PSR sort gate)” value is listed as “high polyreactivity”.

Turning to “QVQLVESGGGLVQAGGSLRLSCAASGRTFYIYTRGWYRQAPGKERELVAAISSSGDSTYYADSVKGRFTISRDNAKNTVYLQMNSLKPEDTAVYYCAAYPTYPDEYWGQGTQVTVSS”, the “polyreactivity (PSR sort gate)” value was “low polyreactivity”.

On to “QVQLVESGGGLVQAGGSLRLSCAASGRTFYKNAIGWYRQAPGKERELVAAITATYYADSVKGRFTISRDNAKNTVYLQMNSLKPEDTAVYYCNAYLYPKQPLSPPYPTFEGGYCGQGTQVTVSS”, for which the “polyreactivity (PSR sort gate)” value is “low polyreactivity”.

In the case of “QVQLVESGGGLVQAGGSLRLSCAASGRTFYKNAMGWYRQEPGTERELVAAISSRGGRTTYADSVKGRFTISRDNAKNTVYLQMISLKPEDTAVYYCAADWAQVYHGTPKYYYWGQGTQVTVSS”, the “polyreactivity (PSR sort gate)” value is reported as “high polyreactivity”.

Take “QVQLVESGGGLVQAGGSLRLSCAASGRTFYKYAMGWYRQAPAKESELVAAISTRGTNTYYADSVKGRFTISRDYAKNTVYLQMKSLKPEDTAVYYCAAVTASPYSHDYWGQGTQVTVSS”: the “polyreactivity (PSR sort gate)” value was “high polyreactivity”.

“QVQLVESGGGLVQAGGSLRLSCAASGRTFYKYAMGWYRQAPGKERELVAVINWSGGRTYADSVKGRFTISRDNAKNTVYLQMNSLKPEDTAVYYCNAESYEFHRAWGDYDYWGQGTQVTVSS”: the “polyreactivity (PSR sort gate)” value is listed as “low polyreactivity”.

With “QVQLVESGGGLVQAGGSLRLSCAASGRTFYKYAMGWYRQAPWKERELVAAISSDGTTYYADSVKGRFTISRDNAKNTVYLQMNSLKPEDTAVYYCAKDRKYADNDYWGQGTQVTVSS”, the “polyreactivity (PSR sort gate)” value was “low polyreactivity”.

“QVQLVESGGGLVQAGGSLRLSCAASGRTFYLNAMGWYRQAPGKERELVATISYTGDTTYYADSVKGRFTISGDNALNTVYLQMNSLKPEDTAVYYCAALPSRPRGYDYWGQGTQVTVSS”: the “polyreactivity (PSR sort gate)” value is “high polyreactivity”.

“QVQLVESGGGLVQAGGSLRLSCAASGRTFYLYAMGWYRPAPGKERELVAAITWRGGSTYYADSVKGRFTISRDNAKNTVYLQMNSLKPEDTAVYYCAAVTFFYYSAVRYEYYYWGQGTQVTVSS”: the “polyreactivity (PSR sort gate)” value was “high polyreactivity”.

For the sequence “QVQLVESGGGLVQAGGSLRLSCAASGRTFYLYAMGWYRQAPGKERELVAAITWRGGSTYYADSVKGRFTISRDNAKNTVYLQMNSLKPEDTAVYYCAAVTFFYYSAVRYEYYYWGQGTQVTVSS”, the “polyreactivity (PSR sort gate)” value is “high polyreactivity”.

In the case of “QVQLVESGGGLVQAGGSLRLSCAASGRTFYLYAMGWYRQAPGKERELVADISWDGDSTYYADSVKGRFTISRDNAKNTVYLQMNSLKPEDTAVYYCAADYFYYYEQYLWYTYDYWGQGTQVTVSS”, the “polyreactivity (PSR sort gate)” value is listed as “high polyreactivity”.

For “QVQLVESGGGLVQAGGSLRLSCAASGRTFYLYTMGSSRQAPGKERELVAAITGGGRTYYADSVKGRFTISRDNAKNTVYLQMNSLKPEDTAVYYCNADYAYYSYDYWGQGTQVTVSS”, the “polyreactivity (PSR sort gate)” value is reported as “low polyreactivity”.

Consider “QVQLVESGGGLVQAGGSLRLSCAASGRTFYLYTMGWYRQAPGKVSELVATISDGGGGTYYADSVKGRFTISRDNAKNTVYLQMNRLKPEDTAVYYCSADPIDVRDVPIPHVDFDYWGQGTQVTVSS”, for which the “polyreactivity (PSR sort gate)” value is given as “low polyreactivity”.

In the case of “QVQLVESGGGLVQAGGSLRLSCAASGRTFYLYTMGWYRQAPWKERELVAGISWSGGSTYADSVKGRFTLSRDNAKNTVYLQMNSLKPEDTAVYYFNADDVRGLFYYWGQGTQVTVSS”, the “polyreactivity (PSR sort gate)” value is reported as “low polyreactivity”.

Regarding “QVQLVESGGGLVQAGGSLRLSCAASGRTFYNAMGWYRPAPGKERELVAAITTGGGTKYADSVKGRCTISRDNAKNTVYLQMNSLKPEDTAVYYCNTDEWYHFYHGAHKYDYWGQGTQVTVSS”, the “polyreactivity (PSR sort gate)” value is reported as “low polyreactivity”.

In the case of “QVQLVESGGGLVQAGGSLRLSCAASGRTFYNAMGWYRQAPGKERELVAAISASGARTYYADSVKGRFTISRDNAKNTVYLQMNSLKPEDTAVYYCATKSQRYARDYWGQGTQVTVSS”, the “polyreactivity (PSR sort gate)” value is listed as “high polyreactivity”.

For the sequence “QVQLVESGGGLVQAGGSLRLSCAASGRTFYNAMGWYRQAPGKERQLVAAITTGGGTKYADSVKGRFTISRDNAKNTVYLEMNSLKPEDTAVYYCNTDEWNHFYHGAHKYDYWGQGTQVTVSS”, the “polyreactivity (PSR sort gate)” value is “low polyreactivity”.

For the sequence “QVQLVESGGGLVQAGGSLRLSCAASGRTFYNNAMGWYRQAPGKERELVAAISQRTGRTYYADSVKGRFTISRDNAKNTVYLQMNSLKPEDTAVYYCNKVAYYSRRMDYWGQGTQVTVSS”, the “polyreactivity (PSR sort gate)” value is “high polyreactivity”.

Consider “QVQLVESGGGLVQAGGSLRLSCAASGRTFYNYAMGWYRQAPGKERELVAAITRGGSTYYADSVKGRFTISRDNAKNTVYLQMNSLKPEDTAVYYCNAVFPYEHEEYDYWGQGTQVTVSS”, for which the “polyreactivity (PSR sort gate)” value is recorded as “high polyreactivity”.

Turning to “QVQLVESGGGLVQAGGSLRLSCAASGRTFYNYAMGWYRQAPGKERELVAAITRGGSTYYADSVKGRFTISRDNAQNTVYLQMNSLKPEDTAVYYCNAKYIKGRDWGQGTQVTVSS”, the “polyreactivity (PSR sort gate)” value is recorded as “high polyreactivity”.

Regarding “QVQLVESGGGLVQAGGSLRLSCAASGRTFYNYAMGWYRQAPGKERELVATITGRGGRTFYAHSVKGRFTISRDNAKNTVYLQMNSLTPEDTAVYYCAAYGSASPYYTLYVEHDYWGQGTQVTVSS”, the “polyreactivity (PSR sort gate)” value was “low polyreactivity”.

As to “QVQLVESGGGLVQAGGSLRLSCAASGRTFYPNAMGWYRQAPGKEREFVARISDSGGYTYYADSVKGRFTISRDNAKNTVYLQMNSLKPEDTAVYYCAADYGDPRVNEYDYWGQGTQVTVSS”, the “polyreactivity (PSR sort gate)” value is “low polyreactivity”.

Consider “QVQLVESGGGLVQAGGSLRLSCAASGRTFYPNAMGWYRQAPGKERELVAAISYSGGSTYYADSVKGRFTISRDNAKNTVYLQMNSLKPEDTAVYYCAAEFSLDKRDYWGQGTQVTVSS”, for which the “polyreactivity (PSR sort gate)” value is on record as “low polyreactivity”.

Regarding “QVQLVESGGGLVQAGGSLRLSCAASGRTFYPNAMGWYRQAPRKERELVADITYSGASTYYADSVKGRFTISRDNAKNSVFLQMNSLKPEDTAVYYCNADESGVLVYVPYDYLGQGTQVTVSS”, the “polyreactivity (PSR sort gate)” value is given as “low polyreactivity”.
